Results taken from patent US20080003218A1.

Target: FcεRI-bound IgE (human IgE loaded on CHO 3D10 cells expressing FcεRI alpha chain) (human) (UniProt P01854)
Test: FACS on IgE-loaded CHO 3D10 cells (FIG. 4)

FcεRI-bound IgE (human IgE loaded on CHO 3D10 cells expressing FcεRI alpha chain) (human), sequence (P01854 whole entry, chain 1 of 2): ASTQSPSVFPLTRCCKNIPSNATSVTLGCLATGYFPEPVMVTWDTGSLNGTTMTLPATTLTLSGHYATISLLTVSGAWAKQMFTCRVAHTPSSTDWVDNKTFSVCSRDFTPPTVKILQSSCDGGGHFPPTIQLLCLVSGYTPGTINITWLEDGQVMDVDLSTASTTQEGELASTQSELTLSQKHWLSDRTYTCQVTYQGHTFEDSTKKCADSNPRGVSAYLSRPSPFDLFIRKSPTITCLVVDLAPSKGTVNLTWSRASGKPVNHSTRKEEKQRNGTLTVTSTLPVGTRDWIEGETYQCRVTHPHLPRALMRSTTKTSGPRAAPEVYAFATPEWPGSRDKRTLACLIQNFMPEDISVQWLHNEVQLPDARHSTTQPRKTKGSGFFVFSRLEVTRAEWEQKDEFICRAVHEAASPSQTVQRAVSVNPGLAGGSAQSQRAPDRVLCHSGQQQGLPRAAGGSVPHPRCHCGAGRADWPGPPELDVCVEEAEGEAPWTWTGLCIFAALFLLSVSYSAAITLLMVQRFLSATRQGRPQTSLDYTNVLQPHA
FcεRI-bound IgE (human IgE loaded on CHO 3D10 cells expressing FcεRI alpha chain) (human), sequence (P12319 26-257, chain 2 of 2, further chain): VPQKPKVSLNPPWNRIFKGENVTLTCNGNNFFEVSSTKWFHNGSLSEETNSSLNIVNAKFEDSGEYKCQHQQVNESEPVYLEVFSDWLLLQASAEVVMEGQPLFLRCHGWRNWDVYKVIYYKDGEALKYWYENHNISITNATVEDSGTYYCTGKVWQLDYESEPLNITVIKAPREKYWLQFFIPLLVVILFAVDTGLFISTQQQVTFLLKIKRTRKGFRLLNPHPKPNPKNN

Substance	mean channel fluorescence at 0.1 µg/ml (mean channel fluorescence)
murine anti-human IgE monoclonal antibody MaE11	6.4
humanized mAb 4D5 (human IgG1 control antibody)	4.7
MOPC21 (murine IgG1 control antibody)	7.3
